From patent US20200317768A1 (published 2020)
Residue numbers refer to the chain shown, from its start. In names and notes the source's numbering stands.

T1: cynomolgus monkey FcγRIIa2 extracellular domain with C-terminal His-tag (cynomolgus monkey)
T1 construct: also called cyno FcgRIIa2; cynoFcγRIIa2
T1 chain: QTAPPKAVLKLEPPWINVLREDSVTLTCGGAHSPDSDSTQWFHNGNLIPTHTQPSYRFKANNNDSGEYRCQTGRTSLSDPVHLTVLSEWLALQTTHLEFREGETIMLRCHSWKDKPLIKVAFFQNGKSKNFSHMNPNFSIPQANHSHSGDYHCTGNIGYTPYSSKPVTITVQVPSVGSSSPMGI

T2: human FcγRIIb extracellular domain with C-terminal His-tag (human, UniProt P31994 43-217)
T2 construct: also called human FcgRIIb
T2 sequence: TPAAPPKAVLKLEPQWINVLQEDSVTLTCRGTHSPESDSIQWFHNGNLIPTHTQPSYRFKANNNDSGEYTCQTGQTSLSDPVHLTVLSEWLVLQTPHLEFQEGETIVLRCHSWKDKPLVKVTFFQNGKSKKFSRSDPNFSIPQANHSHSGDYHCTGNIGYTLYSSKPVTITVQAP

T3: human FcγRIIaR extracellular domain with C-terminal His-tag (human, UniProt P12318 34-217)
T3 construct: also called human FcgRIIaR; FcγRIIa (type R)
T3 chain: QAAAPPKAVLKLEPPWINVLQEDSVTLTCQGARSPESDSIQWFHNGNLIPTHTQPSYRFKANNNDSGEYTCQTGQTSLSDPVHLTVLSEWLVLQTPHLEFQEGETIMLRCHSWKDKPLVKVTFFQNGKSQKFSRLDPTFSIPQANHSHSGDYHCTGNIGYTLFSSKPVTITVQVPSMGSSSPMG

T4: human FcγRIIaH extracellular domain with C-terminal His-tag (human, UniProt P12318 34-217)
T4 construct: also called human FcgRIIaH; FcγRIIa (type H)
T4 sequence: T3 chain with R134H

T5: cynomolgus monkey FcγRIIb extracellular domain with C-terminal His-tag (cynomolgus monkey)
T5 construct: also called cyno FcgRIIb; cynoFcγRIIb
T5 chain: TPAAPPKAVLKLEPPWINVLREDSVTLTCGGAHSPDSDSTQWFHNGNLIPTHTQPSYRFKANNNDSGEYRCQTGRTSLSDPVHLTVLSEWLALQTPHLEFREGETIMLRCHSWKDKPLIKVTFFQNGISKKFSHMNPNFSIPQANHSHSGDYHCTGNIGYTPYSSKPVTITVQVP

T6: cynomolgus monkey FcγRIIIaS extracellular domain with C-terminal His-tag (cynomolgus monkey, UniProt Q8SPW2 21-206 at identity 1.00))
T6 construct: also called cyno FcgRIIIaS; cynoFcγRIIIaS
T6 chain: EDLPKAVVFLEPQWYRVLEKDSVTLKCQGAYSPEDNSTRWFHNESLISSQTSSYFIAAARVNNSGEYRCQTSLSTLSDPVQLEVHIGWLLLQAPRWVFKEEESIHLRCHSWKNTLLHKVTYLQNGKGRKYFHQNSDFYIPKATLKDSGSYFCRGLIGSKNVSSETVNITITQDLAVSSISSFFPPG

T7: cynomolgus monkey FcγRIIa1 extracellular domain with C-terminal His-tag (cynomolgus monkey)
T7 construct: also called cyno FcgRIIa1; cynoFcγRIIa1
T7 chain: T1 chain with T95P, A121T, K127I, S128A, N130K, N135D, Q142R

T8: cynomolgus monkey FcγRIIa3 extracellular domain with C-terminal His-tag (cynomolgus monkey)
T8 construct: also called cyno FcgRIIa3; cynoFcγRIIa3
T8 chain: T1 chain with K127I, N130K, H133P, Q142R

B1: M103205H795-MY533/M103202L889-SK1 (antibody, human IgG1, kappa)
heavy: QVTLKESGPVLVKPTETLTLTCTVSGIDLSHDDISWVRQAPGKGLEWVGIISYAGSTYYASWAKGRLTISKDTSKNQVVLTMTNMDPVDTATYYCARGVPAYSHGGDLWGQGTLVTVSSASTKGPSVFPLAPSSKSTSGGTAALGCLVKDYFPEPVTVSWNSGALTSGVHTFPAVLQSSGLYSLSSVVTVPSSSLGTQTYICNVNHKPSNTKVDKKVEPKSCDKTHTCPPCPAPEWLTGPVVFLFPPKPKDTLMISRTPEVTCVVVDVSDEDPEVKFNWYVDGVEVHNAKTKPREELYNSTYRVVSVLTVLHQDWLNGKEYKCKVSNKALPKPIEKTISKAKGQPREPQVYTLPPSREEMTKNQVSLTCLVKGFYPSDIAVEWESNGQPENNYKTTPPVLDSDGSFFLYSKLTVDKSRWQQGNVFSCSVMHEALHNHYTQKSLSLSP
light: DIVMTQSPATLSLSPGERATLSCTSSQSVYHANWLSWFQQKPGQPPKLLIYWASTLAYGVPSRFSGSGSGTDFTLTISSLQPEDAATYYCAGGYGGGRYAFGQGTKVEIKRTVAAPSVFIFPPSDEQLKSGTASVVCLLNNFYPREAKVQWKVDNALQSGNSQESVTEQDSKDSTYSLSSTLTLSKADYEKHKVYACEVTHQGLSSPVTKSFNRGEC
notes: Substitutions introduced into M103205H795-SG1, expressed with M103202L889-SK1 as light chain; EU numbering
B2: M103205H795-MY534/M103202L889-SK1 (antibody, human IgG1, kappa)
heavy: B1 heavy with W236L
light: B1 light
notes: as for B1
B3: M103205H795-MY535/M103202L889-SK1 (antibody, human IgG1, kappa)
heavy: B1 heavy with A233G, V241S, L297Q
light: B1 light
notes: as for B1
B4: M103205H795-MY536/M103202L889-SK1 (antibody, human IgG1, kappa)
heavy: B1 heavy with A233G, L297Q
light: B1 light
notes: as for B1
B5: M103205H795-MY537/M103202L889-SK1 (antibody, human IgG1, kappa)
heavy: B1 heavy with A233G
light: B1 light
notes: as for B1
B6: M103205H795-MY538/M103202L889-SK1 (A231G/L234W/G236T/H268D/Q295L/A330K) (antibody, human IgG1, kappa)
heavy: B1 heavy with A233G, V241S
light: B1 light
notes: as for B1

Columns and labels:
Assay in all cases: SPR (BIACORE), antibody captured, FcgR analyte
[1] = biological target: T1, cynomolgus monkey FcγRIIa2 …
Method: (§1) The kinetic analysis of interactions between these antibodies and FcγR was carried out using BIACORE® T200 or BIACORE® 4000 (GE Healthcare). HBS-EP+ (GE Healthcare) was used as the running buffer, and the measurement temperature was set to 25° C. A chip produced by immobilizing Protein A. Protein A/G or mouse anti-human IgG kappa light chain (BD Biosciences) onto a Series S Sensor Chip CM4 or CM5 (GE Healthcare) by the amine-coupling method was used. […] After the measurement, the antibody captured on the chip was washed off by allowing reaction with 10 mM glycine-HCl, pH1.5 and 25 mM NaOH so that the chip was regenerated and used repeatedly. The sensorgrams obtained as measurement results were analyzed by the 1:1 Langmuir binding model using the BIACORE® Evaluation Software to calculate the binding rate constant ka (L/mol/s) and dissociation rate constant kd (l/s), and the dissociation constant KD (mol/L) was calculated from these values. […] Regarding such interactions, KD values were calculated using the following 1:1 binding model described in BIACORE® T100 Software Handbook BR1006-48 Edition AE.
(§2) The behavior of interacting molecules according to the 1:1 binding model on BIACORE® can be described by Equation 1: Req=C·R max/(KD+C)+RI, wherein, Req is a plot of steady-state binding levels to analyte concentration. C is concentration, RI is bulk refractive index contribution in the sample, and Rmax is analyte binding capacity of the surface. When this equation is rearranged, KD can be expressed as Equation 2: KD=C·Rmax/(Req−RI)−C. KD can be calculated by substituting the values of Rmax, RI, and C into Equation 1 or Equation 2. From the current measurement conditions, RI=0, C=2 μmol/L can be used.

[2] = biological target: T2, human FcγRIIb extracellular domain with …
Method: as §1, §2

[3] = biological target: T3, human FcγRIIaR extracellular domain …
Method: as §1, §2

[4] = biological target: T4, human FcγRIIaH extracellular domain …
Method: as §1, §2

[5] = biological target: T5, cynomolgus monkey FcγRIIb extracellular …
Method: as §1, §2

[6] = biological target: T6, cynomolgus monkey FcγRIIIaS …
Method: as §1, §2

[7] = biological target: T7, cynomolgus monkey FcγRIIa1 …
Method: as §1, §2

[8] = biological target: T9, human FcγRIIIaV extracellular domain with C-terminal His-tag (human, UniProt P08637 17-208)
T9 construct: also called human FcgRIIIaV
Method: as §1, §2

[9] = biological target: T8, cynomolgus monkey FcγRIIa3 …
Method: as §1, §2

T9 sequence (P08637 17-208 F176V): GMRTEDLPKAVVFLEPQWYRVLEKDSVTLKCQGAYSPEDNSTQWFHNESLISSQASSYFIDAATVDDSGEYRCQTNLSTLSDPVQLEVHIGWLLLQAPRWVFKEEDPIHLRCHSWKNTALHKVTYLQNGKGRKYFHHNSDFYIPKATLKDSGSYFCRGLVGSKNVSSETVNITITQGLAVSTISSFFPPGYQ

Binder | Kd [1] [nM] | Kd [2] [nM] | Kd [3] [nM] | Kd [4] [nM] | Kd [5] [nM] | Kd [6] [nM] | Kd [7] [nM] | Kd [8] [nM] | Kd [9] [nM]
B1 | 730 | 950 | 200 | 210 | 250 | 1100 | 800 | 1800 | 1200
B2 | 1300 | 120 | 190 | 170 | 420 | 1700 | 1300 | 4300 | 1200
B3 | 1400 | 1900 | 640 | 390 | 410 | 2100 | 1300 | 3200 | 3000
B4 | 1100 | 990 | 220 | 290 | 400 | 1600 | 1300 | 3700 | 980
B5 | 1100 | 1000 | 370 | 280 | 320 | 1500 | 1200 | 3300 | 1400
B6 | 1100 | 1300 | 620 | 250 | 280 | 2400 | 960 | 5700 | 3000
